Test [1] addresses human Nectin-4 ECD (human) (UniProt Q96NY8). As to the kind of experiment: SPR.
For test [2], the target named is T1, human Nectin-4 ECD (human, UniProt Q96NY8 32-349).
T1 sequence (looked up): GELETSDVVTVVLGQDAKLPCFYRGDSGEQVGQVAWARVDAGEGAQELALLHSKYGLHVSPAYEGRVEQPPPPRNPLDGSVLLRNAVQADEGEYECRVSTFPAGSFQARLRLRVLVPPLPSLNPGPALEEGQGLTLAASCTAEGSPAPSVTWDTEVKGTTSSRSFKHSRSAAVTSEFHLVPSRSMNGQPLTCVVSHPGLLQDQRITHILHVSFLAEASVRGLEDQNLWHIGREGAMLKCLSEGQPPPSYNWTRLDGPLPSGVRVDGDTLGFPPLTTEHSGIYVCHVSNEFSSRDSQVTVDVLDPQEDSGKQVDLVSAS
As to the kind of experiment: fluorescence polarisation. A general note: Fluorescence polarisation rises when a labelled molecule tumbles more slowly, as on binding a larger partner.

*1 amine or outer side, *2 acyl side, *3 side chain or, on linkers, in order; H or OH if unused. Bridges are numbered along the chain shown (N, C = ends). TATA = O=C(CC[*:1])N1CN(C(=O)CC[*:2])CN(C(=O)CC[*:3])C1

What is called Kd is the free concentration of one partner at which half of the binding sites on the other are occupied at equilibrium, for simple one-to-one binding. Higher therefore signals weaker binding. As a reminder, the Ki is a measure of affinity in units of concentration, obtained from inhibition or displacement. Low readings indicate tighter binding, high ones weaker binding.

With “Bicycle Toxin Conjugate BT8009 (peptide)”, the Kd in test [1] came to 2.5 nM.

B1: Bicycle 10 (peptide)
peptide: Ac-CPFGCMKNWSWPIWC-NH2
modifications: linker 1-5-15 via TATA
SMILES: CC[C@H](C)[C@@H]1NC(=O)[C@@H]2CCCN2C(=O)[C@H](Cc2c[nH]c3ccccc23)NC(=O)[C@H](CO)NC(=O)[C@H](Cc2c[nH]c3ccccc23)NC(=O)[C@H](CC(N)=O)NC(=O)[C@H](CCCCN)NC(=O)[C@H](CCSC)NC(=O)[C@@H]2CSCCC(=O)N3CN(CN(C3)C(=O)CCSC[C@H](NC(C)=O)C(=O)N3CCC[C@H]3C(=O)N[C@@H](Cc3ccccc3)C(=O)NCC(=O)N2)C(=O)CCSC[C@@H](C(N)=O)NC(=O)[C@H](Cc2c[nH]c3ccccc23)NC1=O
Regarding B1, in test [2], the Ki came to 17.6 nM.

B2: Bicycle 8 (peptide)
peptide: Ac-CPFGCMKNWSWPIWCTNK-NH2
modifications: linker 1-5-15 via TATA
For the molecule B2, affinity in test [2] was put at a Ki of 13.5 nM.

For the origin of these results see article PMC9661471 (Journal of Medicinal Chemistry, 2022).
